Measurements: publication doi:10.1101/2023.01.30.525655

Experiments:
[1] = target: MDL1-6xHis (Arabidopsis thaliana MIF/D-DT-like protein 1, hexahistidine-tagged) (Arabidopsis thaliana); assay: SEC
[2] = target: MIF-6xHis (human macrophage migration inhibitory factor, hexahistidine-tagged) (human) (UniProt P14174); assay: SEC
[3] = target: RED-NHS-MIF-6xHis (human MIF-6xHis labelled with the RED-NHS dye) (human) (UniProt P14174); assay: MST
[4] = target: MDL1-6xHis (Arabidopsis thaliana MIF/D-DT-like protein 1, hexahistidine-tagged) (Arabidopsis thaliana); assay: crystal structure

Sequence of MIF-6xHis (human macrophage migration inhibitory factor, hexahistidine-tagged) (human) (P14174 2-115): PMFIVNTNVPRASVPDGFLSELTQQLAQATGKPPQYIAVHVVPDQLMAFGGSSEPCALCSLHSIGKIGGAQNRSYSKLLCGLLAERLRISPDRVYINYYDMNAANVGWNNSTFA
Sequence of RED-NHS-MIF-6xHis (human MIF-6xHis labelled with the RED-NHS dye) (human) (P14174 2-115): as above

stoichiometry N [1]: 3
fraction of the mixture in the hetero-hexamer [2]: 0.33
Kd [3]: < 5 µM
stoichiometry N [4]: 3
Substance: MDL1-6xHis (Arabidopsis thaliana MIF/D-DT-like protein 1, hexahistidine-tagged) (natural protein)
